From article PMC7026407, “Multiple Growth Factor Targeting by Engineered Insulin-like Growth Factor Binding Protein-3 Augments EGF Receptor Tyrosine Kinase Inhibitor Efficacy” (Scientific Reports, 2020)

Assays:
neuregulin-1 [1] = molecular target: T1, neuregulin-1 (UniProt Q02297 20-241); experiment: cell-based or functional assay
hepatocyte growth factor [2] = molecular target: T2, hepatocyte growth factor (UniProt P14210 32-728); experiment: cell-based or functional assay
PDGF BB [3] = molecular target: T3, PDGF BB (UniProt P01127 82-190); experiment: cell-based or functional assay
T3 sequence (P01127 82-190): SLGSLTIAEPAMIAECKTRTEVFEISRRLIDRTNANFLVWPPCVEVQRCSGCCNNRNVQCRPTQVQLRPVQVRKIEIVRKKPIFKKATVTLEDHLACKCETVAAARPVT

[4] = molecular target: T4, insulin-like growth factor-1 (UniProt P05019 49-118); experiment: cell-based or functional assay
T4 sequence (P05019 49-118): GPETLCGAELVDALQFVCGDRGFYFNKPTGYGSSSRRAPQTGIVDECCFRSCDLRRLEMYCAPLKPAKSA

Basic FGF [5] = molecular target: T5, Basic FGF (UniProt P09038 143-288); experiment: cell-based or functional assay
T5 sequence (P09038 143-288): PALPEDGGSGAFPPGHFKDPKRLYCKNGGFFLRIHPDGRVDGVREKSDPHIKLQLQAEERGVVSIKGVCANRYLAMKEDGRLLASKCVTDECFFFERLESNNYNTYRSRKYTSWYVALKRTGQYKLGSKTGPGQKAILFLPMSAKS

neuregulin-1 [6] = molecular target: T1, neuregulin-1; experiment: SPR; growth factor immobilised on a CM4 chip instead of the binding protein (asterisk in Table 1), binding protein or Fc fusion as analyte; HBS-P, 25 °C; regeneration with 4 M MgCl2 then 5 M guanidinium chloride; 1:1 binding analysis; details: both partners purified
hepatocyte growth factor [7] = molecular target: T2, hepatocyte growth factor; experiment: as above; details: both partners purified
PDGF BB [8] = molecular target: T3, PDGF BB; experiment: as above; details: both partners purified
Basic FGF [9] = molecular target: T5, Basic FGF; experiment: as above; details: both partners purified
[10] = molecular target: T4, insulin-like growth factor-1; experiment: SPR; IGF binding protein or Fc fusion amine-coupled to a CM4 chip, growth factor as analyte; Biacore T100 or T200, HBS-P, BSA (0.2 mg/ml) or NaCl (0.65 M final) to reduce non-specific binding, 25 °C; 1:1 binding analysis; details: both partners purified
[11] = molecular target: T6, insulin-like growth factor-2 (UniProt P01344 25-91); experiment: as above; details: both partners purified
T6 construct: insulin-like growth factor 2, commercial growth factor; also called IGF2; IGF-2
T6 sequence (P01344 25-91): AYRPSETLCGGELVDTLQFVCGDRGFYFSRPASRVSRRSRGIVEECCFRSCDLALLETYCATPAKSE

VEGF-B = VEGF-B (UniProt P49765 22-207); experiment: SPR; growth factor immobilised on a CM4 chip instead of the binding protein (asterisk in Table 1), binding protein or Fc fusion as analyte; HBS-P, 25 °C; regeneration with 4 M MgCl2 then 5 M guanidinium chloride; 1:1 binding analysis; details: both partners purified
IGFBP-3 = molecular target: T7, IGFBP-3 (UniProt P17936 28-291); experiment: SPR; IGF binding protein or Fc fusion amine-coupled to a CM4 chip, growth factor as analyte; Biacore T100 or T200, HBS-P, BSA (0.2 mg/ml) or NaCl (0.65 M final) to reduce non-specific binding, 25 °C; 1:1 binding analysis; details: both partners purified
T7 construct: source: bought (commercially available, carrier-free)

IGFBP-7 = molecular target: T8, IGFBP-7 (UniProt Q16270 27-282); experiment: as above; details: both partners purified
T8 construct: source: bought (commercially available, carrier-free)
T8 sequence (looked up): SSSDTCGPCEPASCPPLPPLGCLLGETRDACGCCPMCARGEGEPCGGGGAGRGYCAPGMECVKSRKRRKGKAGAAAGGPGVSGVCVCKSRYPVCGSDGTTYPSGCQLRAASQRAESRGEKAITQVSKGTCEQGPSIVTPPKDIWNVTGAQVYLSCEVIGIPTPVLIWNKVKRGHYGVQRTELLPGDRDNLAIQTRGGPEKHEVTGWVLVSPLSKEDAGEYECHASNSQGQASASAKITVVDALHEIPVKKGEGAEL

56662 [12] = molecular target: T9, 56662 (UniProt P17936-1 28-291); experiment: as above; details: both partners purified
T9 construct: the secretory signal peptide was derived from IGFBP-2; Fc portion of IgG1 added to the C terminus of IGFBP-3; called an Fc dimer; Probably the mature IGFBP-3 after removal of the IGFBP-2 signal peptide; also called IGFBP-3-Fc; BP3-Fc (unmodified IGFBP-3 Fc construct); source: 293 T cells, transfected; conditioned medium purified by proteinA Sepharose; not shown: Fc (IgG1), C-terminal, kept

Chimera A [13] = molecular target: T10, Chimera A; experiment: as above; details: both partners purified
T10 construct: signal peptide derived from IGFBP-2; VEGF receptor 1 domain 2, first part of VEGF-trap; VEGF receptor 2 domain 3, second part of VEGF-trap; VEGF-trap inserted between the IGFBP-3 and the Fc domain; also called chA; BP3-VEGF-trap-Fc; source: 293 T cells, transfected; conditioned medium purified by proteinA Sepharose; not shown: Fc (IgG1), C-terminal, kept

56662 [14] = molecular target: T9, 56662; experiment: SPR; growth factor immobilised on a CM4 chip instead of the binding protein (asterisk in Table 1), binding protein or Fc fusion as analyte; HBS-P, 25 °C; regeneration with 4 M MgCl2 then 5 M guanidinium chloride; 1:1 binding analysis; details: both partners purified
Chimera A [15] = molecular target: T10, Chimera A; experiment: as above; details: both partners purified
Target sequence in this assay (Q02297 20-241, stated change not applied): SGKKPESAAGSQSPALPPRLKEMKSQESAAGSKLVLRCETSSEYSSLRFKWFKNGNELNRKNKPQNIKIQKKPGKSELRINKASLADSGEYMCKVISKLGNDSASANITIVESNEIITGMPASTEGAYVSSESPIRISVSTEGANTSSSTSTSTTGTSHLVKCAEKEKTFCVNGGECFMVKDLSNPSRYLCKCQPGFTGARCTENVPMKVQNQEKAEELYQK

IGFBP-2 = molecular target: T11, IGFBP-2 (UniProt P18065 36-325); experiment: SPR; IGF binding protein or Fc fusion amine-coupled to a CM4 chip, growth factor as analyte; Biacore T100 or T200, HBS-P, BSA (0.2 mg/ml) or NaCl (0.65 M final) to reduce non-specific binding, 25 °C; 1:1 binding analysis; details: both partners purified
T11 construct: source: bought (commercially available, carrier-free)
T11 sequence (looked up): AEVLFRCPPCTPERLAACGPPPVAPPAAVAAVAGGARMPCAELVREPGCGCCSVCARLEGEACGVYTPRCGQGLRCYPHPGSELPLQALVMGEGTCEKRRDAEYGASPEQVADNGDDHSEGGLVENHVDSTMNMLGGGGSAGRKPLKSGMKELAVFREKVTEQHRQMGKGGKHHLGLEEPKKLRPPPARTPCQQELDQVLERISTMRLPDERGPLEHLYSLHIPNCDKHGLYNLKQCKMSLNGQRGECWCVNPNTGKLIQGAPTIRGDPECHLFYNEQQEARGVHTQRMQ

T2 sequence (P14210 32-728): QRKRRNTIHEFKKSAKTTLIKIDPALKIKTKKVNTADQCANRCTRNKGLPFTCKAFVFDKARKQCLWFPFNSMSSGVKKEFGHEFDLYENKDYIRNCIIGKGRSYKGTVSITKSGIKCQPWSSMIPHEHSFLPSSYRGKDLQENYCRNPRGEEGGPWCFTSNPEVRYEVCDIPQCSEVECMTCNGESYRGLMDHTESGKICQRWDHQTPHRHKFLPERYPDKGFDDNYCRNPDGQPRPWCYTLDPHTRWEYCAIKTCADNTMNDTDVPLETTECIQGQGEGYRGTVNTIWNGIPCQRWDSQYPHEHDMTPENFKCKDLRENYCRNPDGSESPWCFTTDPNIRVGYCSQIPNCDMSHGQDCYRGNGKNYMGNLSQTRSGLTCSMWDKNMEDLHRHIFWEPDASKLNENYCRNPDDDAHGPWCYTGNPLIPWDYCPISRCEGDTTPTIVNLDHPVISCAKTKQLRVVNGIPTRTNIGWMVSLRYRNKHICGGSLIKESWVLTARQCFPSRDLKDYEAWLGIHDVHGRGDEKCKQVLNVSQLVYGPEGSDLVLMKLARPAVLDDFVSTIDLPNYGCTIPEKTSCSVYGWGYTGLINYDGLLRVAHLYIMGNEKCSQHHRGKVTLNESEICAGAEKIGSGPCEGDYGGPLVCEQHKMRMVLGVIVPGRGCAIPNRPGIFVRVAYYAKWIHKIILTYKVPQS
T1 sequence (Q02297 20-241): as the sequence (Q02297 20-241, stated change not applied) above

B1: D3 (Fc fusion)
chain: GASSAGLGPVVRCEPCDARALAQCAPPPAVCAELVREPGCGCCLTCALSEGQPCGIYTERCGSGLRCQPSPDEARPLQALLDGRGLCVNASAVSRPAPPAPGNASESEEDRSAGSVESPSVSSTHRVSDPKFHPKGHAKVDYESQSTDTQNFSSESKRETEYGPCRREMEDTLNHLKFLNVLSPRGVHIPNCDKKGFYKKKQCRPSKGRKRGFCWCVDKYGQPLPGYTTKGKEDVHCYSMQSK
IC50 of inhibition of NRG-stimulated proliferation, Hep3B cells (neuregulin-1 [1]): 43 nM | IC50 of inhibition of NRG-stimulated proliferation, MCF-7 cells (neuregulin-1 [1]): 112 nM | IC50 of inhibition of HGF-stimulated proliferation, HUVEC (hepatocyte growth factor [2]): 56 nM | IC50 of inhibition of HGF-stimulated proliferation, Hep3B cells (hepatocyte growth factor [2]): 58 nM | IC50 of inhibition of PDGF BB-stimulated proliferation, 3T3 cells (PDGF BB [3]): 30 nM | IC50 of inhibition of IGF1-stimulated proliferation, HUVEC [4]: 7.45 nM | IC50 of inhibition of IGF1-stimulated proliferation, Hep3B cells [4]: 21 nM | IC50 of inhibition of IGF1-stimulated proliferation, MCF-7 cells [4]: 29 nM | IC50 of inhibition of bFGF-stimulated proliferation, HUVEC (Basic FGF [5]): 39 nM | IC50 of inhibition of bFGF-stimulated proliferation, Hep3B cells (Basic FGF [5]): 59 nM | IC50 of inhibition of bFGF-stimulated proliferation, MCF-7 cells (Basic FGF [5]): 26 nM | Kd (neuregulin-1 [6]): 2.62 nM | Kd (hepatocyte growth factor [7]): 2.63 nM | Kd (PDGF BB [8]): 5.29 nM | Kd (Basic FGF [9]): 3.29 nM

B2: D3 (Fc fusion)
chain: GASSAGLGPVVRCEPCDARALAQCAPPPAVCAELVREPGCGCCLTCALSEGQPCGIYTERCGSGLRCQPSPDEARPLQALLDGRGLCVNASAVSRPAPPAPGNASESEEDRSAGSVESPSVSSTHRVSDPKFHPKGHAKVDYESQSTDTQNFSSESKRETEYGPCRREMEDTLNHLKFLNVLSPRGVHIPNCDKKGFYKKKQCRPSKGRKRGFCWCVDKYGQPLPGYTTKGKEDVHCYSMQSK
modifications: Secreted Fc-fusion dimer; Fc omitted. Deletions 121-126, 166-174 and 180-185 are in 56662 precursor numbering (UniProt = construct + 2). The IGFBP-2 signal peptide is removed.
Kd [10]: 0.51 nM | Kd [11]: 0.22 nM

B3: D3 (Fc fusion)
chain: GASSAGLGPVVRCEPCDARALAQCAPPPAVCAELVREPGCGCCLTCALSEGQPCGIYTERCGSGLRCQPSPDEARPLQALLDGRGLCVNASAVSRPAPPAPGNASESEEDRSAGSVESPSVSSTHRVSDPKFHPKGHAKVDYESQSTDTQNFSSESKRETEYGPCRREMEDTLNHLKFLNVLSPRGVHIPNCDKKGFYKKKQCRPSKGRKRGFCWCVDKYGQPLPGYTTKGKEDVHCYSMQSK
modifications: Secreted Fc-fusion dimer; Fc omitted. Deletions 121-126, 166-174 and 180-185 are in 56662 precursor numbering (UniProt = construct + 2). The IGFBP-2 signal peptide is removed. / Disulfide-linked …
Kd (VEGF-B): 19.8 nM

B4: neuregulin-1 (ligand)
chain: SERKEGRGKGKGKKKERGSGKKPESAAGSQSPALPPRLKEMKSQESAAGSKLVLRCETSSEYSSLRFKWFKNGNELNRKNKPQNIKIQKKPGKSELRINKASLADSGEYMCKVISKLGNDSASANITIVESNEIITGMPASTEGAYVSSESPIRISVSTEGANTSSSTSTSTTGTSHLVKCAEKEKTFCVNGGECFMVKDLSNPSRYLCKCPNEFTGDRCQNYVMASFYKHLGIEFMEAEELYQK
modifications: R&D 377-HB, neuregulin extracellular domain, taken as NRG1-beta1 Ser2-Lys246; the paper prints only the catalogue number and 'extracellular domain'.
Kd (IGFBP-3): 2.09 nM | Kd (IGFBP-7): 1600 nM | Kd 56662 [12]: 4.46 nM | Kd (Chimera A [13]): 3.21 nM | Kd 56662 [14]: 4.66 nM | Kd (Chimera A [15]): 1.71 nM

B5: VEGF-B (ligand)
chain: PVSQPDAPGHQRKVVSWIDVYTRATCQPREVVVPLTVELMGTVAKQLVPSCVTVQRCGGCCPDDGLECVPTGQHQVRMQILMIRYPSSQLGEMSLEEHSQCECRPKKKDSAVKPDSPRPLCPRCTQHHQRPDPRTCRCRCRRRSFLRCQGRGLELNPDTCRCRKLRR
modifications: Disulfide-linked homodimer. R&D 751-VE taken as the VEGF-B167 isoform; isoform and limits are not printed.
Kd (IGFBP-2): 2.82 nM | Kd (IGFBP-3): 16.1 nM | Kd (IGFBP-7): 9.88 nM | Kd 56662 [12]: 14.3 nM | Kd (Chimera A [13]): 0.49 nM
